Assay results as given in publication PMC6208348 (Nature Communications, 2018).
Non-standard residues stand in square brackets, D forms with d. No end group written: not given here. pY = N[C@@H](Cc1ccc(OP(=O)(O)O)cc1)C(=O)O

Target: wild-type Src SH2 domain (UniProt P12931 151-248)
Assay: fluorescence polarisation
Settings: both partners purified

GG[pY]GG (source: synthetic peptide) [mini peptide GGpYGG] was tested, and the Kd was over 50 µM.
